Experimental data from publication PMC11729909, “FOXP1 phosphorylation antagonizes its O-GlcNAcylation in regulating ATR activation in response to replication stress” (The EMBO Journal, 2024).

Molecular target: T1, His-tagged OGT (human, UniProt O15294 1-1046)
T1 construct: OGT, human, full length; Vector pet28a; also called His-OGT; pet28a-OGT; source: E. coli, purified
T1 sequence (looked up): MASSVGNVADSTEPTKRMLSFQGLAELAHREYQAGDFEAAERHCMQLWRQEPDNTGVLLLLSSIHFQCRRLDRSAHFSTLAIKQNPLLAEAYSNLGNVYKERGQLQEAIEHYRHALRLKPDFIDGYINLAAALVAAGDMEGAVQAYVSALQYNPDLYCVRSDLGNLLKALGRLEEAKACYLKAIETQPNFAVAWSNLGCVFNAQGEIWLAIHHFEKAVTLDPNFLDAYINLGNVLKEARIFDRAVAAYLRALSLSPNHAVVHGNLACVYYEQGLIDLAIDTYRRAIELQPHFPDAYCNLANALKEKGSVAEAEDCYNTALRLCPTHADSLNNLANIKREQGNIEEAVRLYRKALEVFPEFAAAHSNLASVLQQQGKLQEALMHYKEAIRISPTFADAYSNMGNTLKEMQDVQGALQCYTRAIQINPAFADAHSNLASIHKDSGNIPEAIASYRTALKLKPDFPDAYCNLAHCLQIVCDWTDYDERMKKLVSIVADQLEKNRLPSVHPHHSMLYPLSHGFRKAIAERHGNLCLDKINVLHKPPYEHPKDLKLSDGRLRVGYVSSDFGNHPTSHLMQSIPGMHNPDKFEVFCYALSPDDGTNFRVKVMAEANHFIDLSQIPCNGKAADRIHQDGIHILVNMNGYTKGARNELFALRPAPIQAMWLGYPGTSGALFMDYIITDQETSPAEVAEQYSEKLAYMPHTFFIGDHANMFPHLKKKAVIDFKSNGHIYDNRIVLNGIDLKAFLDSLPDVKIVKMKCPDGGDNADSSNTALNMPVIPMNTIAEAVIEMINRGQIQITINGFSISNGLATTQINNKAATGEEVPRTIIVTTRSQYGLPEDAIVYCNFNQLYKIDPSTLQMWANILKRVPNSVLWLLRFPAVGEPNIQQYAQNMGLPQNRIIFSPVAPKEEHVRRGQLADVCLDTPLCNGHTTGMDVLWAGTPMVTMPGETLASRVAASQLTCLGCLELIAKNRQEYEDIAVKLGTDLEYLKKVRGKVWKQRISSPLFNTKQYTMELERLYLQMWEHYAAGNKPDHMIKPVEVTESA
Assay: pull-down; GST pull-down: His-tagged OGT incubated with wild-type GST-tagged FOXP1 or its mutant lacking AA 556–610, glutathione beads, immunoblot
Settings: both partners purified

binding result: binds
B1: GST-tagged FOXP1 (wild type, full length) (natural protein, human, UniProt Q9H334 1-677, looked up)
chain: MMQESGTETKSNGSAIQNGSGGSNHLLECGGLREGRSNGETPAVDIGAADLAHAQQQQQQALQVARQLLLQQQQQQQVSGLKSPKRNDKQPALQVPVSVAMMTPQVITPQQMQQILQQQVLSPQQLQVLLQQQQALMLQQQQLQEFYKKQQEQLQLQLLQQQHAGKQPKEQQQVATQQLAFQQQLLQMQQLQQQHLLSLQRQGLLTIQPGQPALPLQPLAQGMIPTELQQLWKEVTSAHTAEETTGNNHSSLDLTTTCVSSSAPSKTSLIMNPHASTNGQLSVHTPKRESLSHEEHPHSHPLYGHGVCKWPGCEAVCEDFQSFLKHLNSEHALDDRSTAQCRVQMQVVQQLELQLAKDKERLQAMMTHLHVKSTEPKAAPQPLNLVSSVTLSKSASEASPQSLPHTPTTPTAPLTPVTQGPSVITTTSMHTVGPIRRRYSDKYNVPISSADIAQNQEFYKNAEVRPPFTYASLIRQAILESPEKQLTLNEIYNWFTRMFAYFRRNAATWKNAVRHNLSLHKCFVRVENVKGAVWTVDEVEFQKRRPQKISGNPSLIKNMQSSHAYCTPLNAALQASMAENSIPLYTTASMGNPTLGNLASAIREELNGAMEHTNSNESDSSPGRSPMQAVHPVHVKEEPLDPEEAEGPLSLVTTANHSPDFDHDRDYEDEPVNEDME
notes: FOXP1, human, full length; Vector pGEX-4T-1; also called GST-FOXP1; pGEX-4T-1-FOXP1; source: E. coli, purified
